Reference: paper PMC8699718, “A structurally conserved site in AUP1 binds the E2 enzyme UBE2G2 and is essential for ER-associated degradation” (PLoS Biology, 2021)

System: NHK (Null Hong Kong variant of alpha1-antitrypsin)
Assay: CHX chase: NHK degradation in HT1080 UBE2G2 KO cells
Assay type: cell-based, human
Conditions: re-expression in HT1080 UBE2G2 KO
Method: Fig 3 The AUP1–UBE2G2 interaction is required for ERAD. (A) Equimolar amounts of GST-AUP1 (aa 292 to 410) or GST were immobilized on glutathione beads and binding to the indicated in vitro translated ^35S-labeled E2s was assessed. Left panel is 5% of input used for binding. E2s are referred to by their unique alpha-numeric designation (e.g., UBE2G1 and UBE2J1). (B) HT1080 or UBE2G2 KO cells were transfected with INSIG-1-MYC and degradation assessed by CHX chase. […] (D) Cells were transfected with NHK-MYC and HA-ubiquitin and ubiquitination of NHK assessed following proteasome inhibition and IP (right panel). Left panel is 10% of total cell lysate used for IP, indicating no discernable change in total ubiquitination. (E) Levels of endogenous HRD1 were monitored by CHX chase in the indicated cell types. (F) Ubiquitination of endogenous HRD1 was assessed following IP with HRD1 antiserum. Arrow in upper panel indicates migration of unmodified HRD1. […]
Plasmid transfections were carried out using PolyFect (Qiagen, Germantown, MD, USA) or JetPrime (Polyplus, New York, NY, USA) reagents. […] Clarified lysates or immunoprecipitates were denatured by heating in NuPAGE LDS Sample Buffer with β-mercaptoethanol at 70°C for 10 minutes, resolved on Bis-Tris polyacrylamide gels in NuPAGE MES or MOPS SDS running buffer and analyzed by western blotting. […]

B1: UBE2G2: ERAD ubiquitin-conjugating enzyme (E2); purified in vitro, N-terminally MYC-tagged in cells (protein)
chain: MAGTALKRLMAEYKQLTLNPPEGIVAGPMNEENFFEWEALIMGPEDTCFEFGVFPAILSFPLDYPLSPPKMRFTCEMFHPNIYPDGRVCISILHAPGDDPMGYESSAERWSPVQSVEKILLSVVSMLAEPNDESGANVDASKMWRDDREQFYKIAKQIVQKSLGL
  NHK degradation in UBE2G2 KO cells: restored NHK degradation
